Test results as given in paper PMC8341956.

Molecular target: nucleosome core particle (recombinant Xenopus laevis histone octamer on 147 bp 601 DNA) (Xenopus laevis)
Assay: native gel or EMSA; as the gel shift with nucleosome cores (50 nM), at higher concentrations of HMGN1 (methods: 2-800 nM); ESI Fig. S9.3

full-length recombinant HMGN1 (HMGN1_1–99, unmodified) (natural protein)
stoichiometry N (HMGN1 molecules per nucleosome): > 2
